Experimental data taken from paper PMC4470385.

Molecular target: Von Willebrand factor (VWF) (UniProt P04275)
Assay: ELISA

Substance	Kd
FVIII 336(P4-P3')562/Ala108Ile/Asp519Val/Glu665Val variant (B-domainless) (natural protein)	1 nM
FVIII Ala108Ile variant (B-domainless) (natural protein)	0.97 nM
WT FVIII (B-domainless factor VIII, lacking residues Gln744-Ser1637) (natural protein)	0.95 nM

These reach a lower Kd. Values come first.

Kd	Substance
0.91 nM	FVIII 336(P4-P3')562/Ala108Ile variant (B-domainless) (natural protein)
0.9 nM	FVIII Asp519Val/Glu665Val variant (B-domainless) (natural protein)
0.87 nM	FVIII 336(P4-P3')562/Asp519Val/Glu665Val variant (B-domainless) (natural protein)
0.82 nM	FVIII 336(P4-P3')562 variant (B-domainless) (natural protein)
